We go through two proteins from patent publication US20040229241A1, “Cloned mammalian polyamine oxidase” (priority 2001, published 2004).

Substrate in data set [1]: NCCCNCCCCNCCCN
Briefly: cells, lysate or membranes named. The settings on record: other: named compound as substrate, Lineweaver-Burk; 37.0 °C.

Substrate in data set [2]: NCCCNCCCCNCCCN
The data set is described as follows: PAO activity of in vitro TnT (wheat germ) produced PAOh1, fluorescent H2O2 assay. It counts as biochemical, human. Particulars: other: Lineweaver/Burke transformation; pH 9.0; 37.0 °C. The method, then: In Vitro Transcription and Translation. In vitro transcription and translation reactions were performed with the TnT-coupled wheat germ extract system. Parallel reactions were prepared by adding an unlabeled amino acid mixture to one reaction and a [^35S]methionine containing amino acid mixture to the other, according to the supplied protocol. Vector pcDNA3.1 and pPAOh1 were linearized by SalI restriction and served as the templates. The labeled translation reactions products were separated by 10% SDS-PAGE, and radioactivity on the labeled PAO band was determined by Phosphor image analysis using Image Quant software (Molecular Dynamics, Sunnyvale, Calif.).
Determination of PAO Enzyme Activity. The cultured H157 cells with or without treatment of 10 μM N^1, N″-bis(ethyl)norspermine (BENSpm) were homogenized with a Dounce tissue homogenizer in ice-cold 0.083 M sodium borate buffer (pH 9.0). […] The enzyme activity was stopped by the addition of 2.0 ml of 0.1 M NaOH solution. The fluorescence intensity was measured with excitation at 323 nm and emission at 426 nm. […] Protein content of the cellular homogenate was determined using the Bio-Rad protein assay kit (Bio-Rad). […] For determination of PAO activity in the product of the unlabeled TnT reaction, 10 μl of TnT reaction were used in the place of the homogenate. […]

The term Km denotes the substrate concentration at which the rate is half of its maximum.

B1: purified recombinant human PAOh1/SMO (Homo sapiens) (protein)
chain: MQSCESSGDSADDPLSRGLRRRGQPRVVVIGAGLAGLAAAKALLEQGFTDVTVLEASSHIGGRVQSVKLGHATFELGATWIHGSHGNPIYHLAEANGLLEETTDGERSVGRISLYSKNGVACYLTNHGRRIPKDVVEEFSDLYNEVYNLTQEFFRHDKPVNAESQNSVGVFTREEVRNRIRNDPDDPEATKRLKLAMIQQYLKVESCESSSHSMDEVSLSAFGEWTEIPGAHHIIPSGFMRVVELLAEGIPAHVIQLGKPVRCIHWDQASARPRGPEIEPRGEGDHNHDTGEGGQGGEEPRGGRWDEDEQWSVVVECEDCELIPADHVIVTVSLGVLKRQYTSFFRPGLPTEKVAAIHRLGIGTTDKIFLEFEEPFWGPECNSLQFVWEDEAESHTLTYPPELWYRKICGFDVLYPPERYGHVLSGWICGEEALVMEKCDDEAVAEICTEMLRQFTGNPNIPKPRRILRSAWGSNPYFRGSYSYTQVGSSGADVEKLAKPLPYTESSKTAPMQVLFSGEATHRKYYSTTHGALLSGQREAARLIEMYRDLFQQGT
Regarding B1, in data set [1], the Km amounted to 1.63 µM and the Vmax is recorded as 7.72 μmol/mg protein/min.

B2: human PAOh1 (Homo sapiens) (protein)
chain: B1 chain
notes: made in house; host or cells: TnT-coupled wheat germ extract (Promega), template pPAOh1 (pcDNA3.1)
For B2, the Km in data set [2] worked out at 18 µM.
